± gives the uncertainty stated by the source.
Experiment: self-splicing fitness, log relative to wild type (ln ratio); higher = more splicing; Tetrahymena group I intron in knt gene, E. coli kanamycin selection, DiMSum; sequences stand for … in CUCUCU…GGAGGGAAAAGUUAUCAGGCAUGCACCUGGUAGCUAGUCUUUAAACCAAUAGAUUGCAUCGGUUUAAAAGGCAAGACCGUCAAAUUGCGGGAAAGGGGUCAACAGCCGUUCAGUACCAAGUCUCAGGGGAAACUUUGAGAUGGCCUUGCAAAGGGUAUGGUAAUAAGCUGACGGACAUGGUCCUAACCACGCAGCCAAGUCCUAAGUCAACAGAUCUUCUGUUGAUAUGGAUGCAGUUCACAGACUAAAUGUCGGUCGGGGAAGAUGUAUUCUUCUCAUAAGAUAUAGUCGGACCUCUCCUUAAUGGGAGCUAGCGGAUGAAGUGAUGCAACACUGGAGCCGCUGGGAACUAAUUUGUAUGCGAAAGUAUAUUGAUUAGUUUUGGAGUACUCGUGGUCG
Method in brief: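 Six replicate transformations of E. coli BL21(DE3) with a pET-22b(+) library were grown overnight at 37°C or 30°C. The library randomised all eight P1ex-region intron nucleotides, the intron lying in the knt kanamycin-resistance gene, and plates were LB agar with or without 25 μg/mL kanamycin plus 100 μg/mL carbenicillin, 50 μM IPTG and 0.2% rhamnose. Pooled colonies were amplicon-sequenced on an Illumina HiSeq 2500, and fitness is the DiMSum error-weighted combination of wild-type-normalised replicate fold changes, kanamycin versus none.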

Sequence | self-splicing fitness (ln) (30 °C) | self-splicing fitness (ln) (37 °C)
AGCCAGCAAUAUUACGUCUA | -3 ± 0.21 | -2.05 ± 0.19
AAACAGCAAUAUUACGACGC | -1.43 ± 0.081 | -0.718 ± 0.096
CACCAGCAAUAUUACGCUGU | -3.61 ± 0.15 | -2.63 ± 0.19
GUCAAGCAAUAUUACGUGAU | -4.06 ± 0.23 | -3.23 ± 0.27
AAGUAGCAAUAUUACGAGCU | -0.679 ± 0.057 | -0.289 ± 0.087
GAGAAGCAAUAUUACGAUCG | -0.334 ± 0.094 | -0.068 ± 0.14
GCCUAGCAAUAUUACGUCUC | -0.71 ± 0.064 | -0.518 ± 0.086
AUGAAGCAAUAUUACGAGGA | -1.44 ± 0.14 | -2.6 ± 0.2
GAGCAGCAAUAUUACGGUGC | -2.98 ± 0.18 | -2.61 ± 0.18
UUUCAGCAAUAUUACGCGAC | -2.9 ± 0.37 | –
UGUAAGCAAUAUUACGGUGC | -3.82 ± 0.35 | -2.13 ± 0.26
AAGUAGCAAUAUUACGGCUU | -1.4 ± 0.12 | -0.634 ± 0.14
UGGGAGCAAUAUUACGUUCG | -1.34 ± 0.22 | -0.604 ± 0.3
CCCCAGCAAUAUUACGCCUA | -2.61 ± 0.18 | -2.89 ± 0.32
AUAAAGCAAUAUUACGCCAA | -0.625 ± 0.15 | -0.34 ± 0.17
CAAGAGCAAUAUUACGCCAG | -1.92 ± 0.24 | -2 ± 0.41
ACGAAGCAAUAUUACGUGCU | -2.96 ± 0.12 | -1.84 ± 0.14
ACGCAGCAAUAUUACGGAGU | -2.79 ± 0.093 | -2.08 ± 0.12
AGAGAGCAAUAUUACGCAUU | -3.41 ± 0.18 | -2.35 ± 0.15
CUCUAGCAAUAUUACGGCAU | -4.62 ± 0.39 | -3.62 ± 0.42
GGAUAGCAAUAUUACGAGUU | -1.59 ± 0.1 | -1.64 ± 0.14

Sequence | self-splicing fitness (ln) (30 °C) | self-splicing fitness (ln) (37 °C)
UGUAAGCAAUAUUACGCUUG | -4.2 ± 0.42 | -1.99 ± 0.21
AUUCAGCAAUAUUACGGAAU | -2.86 ± 0.14 | -2.61 ± 0.23
UGGAAGCAAUAUUACGGGAA | -2.15 ± 0.21 | -1.19 ± 0.16
AUAAAGCAAUAUUACGCGCU | -0.372 ± 0.1 | -0.603 ± 0.12
CAACAGCAAUAUUACGUUUC | -3.28 ± 0.14 | -2.33 ± 0.16
UCUAAGCAAUAUUACGCUGC | -3.41 ± 0.19 | -2.84 ± 0.19
CGAGAGCAAUAUUACGCCAA | -1.49 ± 0.2 | -1.99 ± 0.38
GAAGAGCAAUAUUACGUUAA | -2.65 ± 0.22 | -1.65 ± 0.2
AUAGAGCAAUAUUACGCGUG | -0.385 ± 0.11 | -1.09 ± 0.13
CGGAAGCAAUAUUACGCCUG | -1 ± 0.098 | -0.724 ± 0.12
CGUGAGCAAUAUUACGUGGU | -3.02 ± 0.17 | -2.42 ± 0.22
UUCUAGCAAUAUUACGUACU | -3.29 ± 0.36 | -2.97 ± 0.47
AUACAGCAAUAUUACGAGUG | -2.32 ± 0.073 | -1.34 ± 0.093
GCGCAGCAAUAUUACGGAUA | -1.98 ± 0.16 | -0.989 ± 0.13
AGGCAGCAAUAUUACGACAU | -0.21 ± 0.012 | -0.101 ± 0.032
UUGUAGCAAUAUUACGAUUA | -0.945 ± 0.11 | -0.211 ± 0.1
GAUCAGCAAUAUUACGGUUC | -2.83 ± 0.23 | -0.31 ± 0.14
GGAUAGCAAUAUUACGAGGA | -3.28 ± 0.25 | -1.15 ± 0.17
CGACAGCAAUAUUACGAUGA | -0.751 ± 0.075 | -0.41 ± 0.075
GAAUAGCAAUAUUACGUUCA | -1.04 ± 0.38 | -0.336 ± 0.3
CAUAAGCAAUAUUACGAUCU | -2.67 ± 0.23 | -1.85 ± 0.24
